The values below come from patent publication US8158585B2, “Cross-β structure comprising amyloid-binding proteins and methods for detection of the cross-β structure, for modulating cross-β structures fiber formation and modulating cross-β structure-mediated toxicity” (CrossBeta Biosciences B.V., priority 2002, dated 2012).

The target of experiment [1] is T1, albumin-g6p (Bos taurus, UniProt P02769).
T1 construct: Bovine serum albumin (BSA) fraction V pH 7.0; host or cells: bovine serum, fraction V
T1 sequence (P02769 25-607): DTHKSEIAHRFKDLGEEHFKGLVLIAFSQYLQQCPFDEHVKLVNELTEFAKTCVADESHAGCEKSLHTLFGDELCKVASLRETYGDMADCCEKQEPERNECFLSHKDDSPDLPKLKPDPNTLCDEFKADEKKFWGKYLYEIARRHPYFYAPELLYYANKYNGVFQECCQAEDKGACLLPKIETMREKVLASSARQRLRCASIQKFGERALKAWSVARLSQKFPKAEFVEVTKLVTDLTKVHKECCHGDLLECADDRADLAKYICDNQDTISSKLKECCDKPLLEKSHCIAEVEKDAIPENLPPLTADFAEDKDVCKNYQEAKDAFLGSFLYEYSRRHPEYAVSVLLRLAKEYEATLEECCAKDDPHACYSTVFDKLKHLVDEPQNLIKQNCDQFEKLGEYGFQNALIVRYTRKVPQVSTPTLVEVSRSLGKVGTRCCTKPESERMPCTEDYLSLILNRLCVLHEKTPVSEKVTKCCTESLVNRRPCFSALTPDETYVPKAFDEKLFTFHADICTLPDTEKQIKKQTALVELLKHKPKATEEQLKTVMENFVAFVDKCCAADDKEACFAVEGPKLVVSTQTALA
Description: ELISA: binding of tPA-F-GST and RPTPμ-GST to glycated albumin. Further details: species or system bovine. As to conditions: detection with anti-GST 2F3. On the procedure: (§1) Binding of tPA-F-GST and RPTPμ-GST to fibrous amyloids human Aβ (1-40) and albumin-[…] was assayed with an ELISA. In brief, human Aβ (1-40), albumin-[…], or buffer only, were coated on a peptide I Immobilizer or a protein I Immobilizer, respectively. Wells were incubated with the purified GST-tagged constructs or control medium and binding was detected using primary anti-GST monoclonal antibody 2F3 and RAMPO. The wells were also incubated with […] of tPA in the presence of 10 mM of εACA. Binding of tPA is independent of the lysyl binding site located at the kringle 2 domain. Binding of tPA was measured using primary antibody 374B and RAMPO. Experiments were performed in triplicate and blank readings of non-coated wells were substracted.

Experiment [2] concerns the target Aβ (1-40) (Homo sapiens, UniProt P05067). Kind of experiment: ELISA: binding of tPA-F-GST and RPTPμ-GST to human Aβ (1-40). As to conditions: detection with anti-GST 2F3. More on the design: Peptide Aβ (1-40), containing amino acids as present in the described human Alzheimer peptide; purchased Pepscan, Inc. (The Netherlands) or peptide synthesis facility at the Netherlands Cancer Institute; host or cells: synthetic peptide. As to the method: as §1
A general note: ELISA stands for enzyme-linked immunosorbent assay.

Experiment [3] addresses T2, Aβ fibrils (Homo sapiens, UniProt P05067).
T2 construct: Peptide Aβ (1-40), containing amino acids as present in the described human Alzheimer peptide; purchased Pepscan, Inc. (The Netherlands) or peptide synthesis facility at the Netherlands Cancer Institute; host or cells: synthetic peptide
Description: Amyloid pull-down with insoluble Aβ fibers. Type of experiment: binding. As to conditions: conditioned BHK medium. As to the method:
Conditioned medium of BHK cells expressing GST-tagged tPA F, F-EGF, EGF, K1, F-EGF-K1, FXII F, HGFa F, Fn F4, Fn F5, Fn F4-5 and GST was used for amyloid binding assays. At first, constructs were adjusted to approximately equal concentration using Western blots. Qualitative binding of the recombinant fragments were evaluated using a “pull-down” assay. To this end, the recombinantly made fragments were incubated with either Aβ or IAPP fibrils. Since these peptides form insoluble fibers, unbound proteins can be easily removed from the fibers following centrifugation. The pellets containing the bound fragments were subsequently washed several times. Bound fragments were solubilized in SDS-sample buffer and analyzed by PAGE, as were unbound proteins in the supernatant fraction and starting material. The gels were analyzed using immunoblotting analysis with the anti-GST antibody Z-5.

Experiment [4] addresses T3, tPA (Homo sapiens, UniProt P00750).
T3 construct: purchased Boehringer-Ingelheim (Germany)
Kind of experiment: ELISA: binding of tPA to glycated albumin and Hb. As to conditions: g6p-glycated protein immobilized. On the procedure:
Binding of tPA to albumin-g6p (four-week and 23-week incubations), albumin-glyceraldehyde, control albumin, human Hb-g6p (ten-week incubation), Hb control, or to Aβ (1-40) was tested using an enzyme-linked immunosorbent assay (ELISA) set-up. Albumin-g6p and control albumin (2.5 μg ml^−1 in coat buffer, 50 mM Na2CO3/NaHCO3 pH 9.6, 0.02% m/v NaN3, 50 μl/well) were immobilized for one hour at room temperature in 96-well protein Immobilizer plates (Exiqon, Vedbaek, Denmark). Aβ (1-40) (10 μg ml^−1 in coat buffer) was immobilized for 75 minutes at room temperature in a 96-well peptide Immobilizer plate (Exiqon, Vedbaek, Denmark). Control wells were incubated with coat buffer only. After a wash step with 200 μl of PBS/0.1% v/v Tween 20, plates were blocked with 300 μl of PBS/1% v/v Tween 20, for two hours at room temperature while shaking. All subsequent incubations were performed in PBS/0.1% v/v Tween 20 for one hour at room temperature while shaking, with volumes of 50 μl per well. After each incubation, wells were washed five times with 200 μl of PBS/0.1% v/v Tween 20. Increasing amounts of f.l. tPA or K2-P tPA was added in triplicate to coated wells and to control wells. […] Absorbance was read at 490 nm on a Vmax kinetic microplate reader (Molecular Devices, Sunnyvale, Calif., USA).

Experiment [5] has as its system differentiated N1E-115 cells. Kind of experiment: N1E-115 cell detachment (methylene blue staining). The class given is cell-based, mouse. As to conditions: plasmin added with Aβ (25 μM), 48 hours. As to the method: FIG. 4 is a set of graphs illustrating stimulation of tPA-mediated plasmin formation by Aβ and synergistic stimulation of cell detachment by plasminogen and Aβ. Panel A depicts that plasminogen (200 μg/ml) and tPA (200 pM) were incubated with Aβ (5 μM) or control buffer. Samples were taken from the reaction mixture at the indicated periods of time and plasmin activity was measured by conversion of the chromogenic plasmin substrate S-2251 at 405 nm. […] After 48 hours, the dead cells were washed away and the remaining adherent cells were stained with methylene blue. Plasmin cannot prevent Aβ-induced cell detachment. Panel C illustrates that N1E-115 cells were differentiated and received the indicated concentrations of plasminogen in the presence or absence of 10 μM Aβ. After 24 hours, cell detachment was assessed. […] Panel D is an immunoblot analysis of plasmin formation and laminin degradation. Differentiated N1E-115 cells were treated with or without Aβ (10 μM) in the absence or presence of added plasminogen. Addition of Aβ results in the formation of plasmin (bottom panel) and in degradation of laminin (top panel).
FIG. 5 depicts graphs illustrating that carboxypeptidase B inhibits Aβ-stimulated tPA-mediated plasmin formation and cell detachment. […] Samples were taken from the reaction mixture at the indicated periods of time and plasmin activity was measured by conversion of the chromogenic plasmin substrate S-2251 at 405 nm. The reaction was performed in the absence or the presence of 50 μg ml^−1 carboxypeptidase B (CpB) and in the absence or presence of 3.5 μM carboxypeptidase inhibitor (CPI). CpB greatly attenuates A-stimulated plasmin formation. […] After 24 hours, the cells were photographed. Panel C illustrates that, subsequently, the cells were washed once with PBS and the remaining cells were quantified as percentage-adhered cells by methylene blue staining. In Panel D, the cells were treated as in Panels B and C and medium and cell fractions were collected and analyzed by Western blot using an anti-plasmin(ogen) antibody. Aβ stimulates plasmin formation that is inhibited by CpB.
N1E-115 mouse neuroblastoma cells were routinely cultured in DMEM containing 5% FCS, supplemented with antibiotics. Cells were differentiated into post-mitotic neurons.^52 The cells were exposed to Aβ (50 μg ml^−1) for 24 hours in the presence or absence of 20 μg ml^−1 plasminogen in the presence or absence of 50 μg ml^−1 CpB. Cells were photographed, counted and lysed by the addition of 4× sample buffer (250 mM Tris pH 6.8, 8% SDS, 10% glycerol, 100 mM DTT, 0.01% w/v bromophenol blue) to the medium. The lysate, containing both adherent and floating (presumably dying and/or dead) cells, as well as the culture medium, were analyzed for the presence of plasminogen and plasmin, as well as for laminin, by Western blot analysis using specific antibodies against plasminogen (MoAb 3642, American Diagnostics), laminin (PoAb L9393, Sigma).

Experiment [6] addresses T4, Aβ (Homo sapiens, UniProt P05067).
T4 construct: Peptide Aβ (1-40), containing amino acids as present in the described human Alzheimer peptide; purchased Pepscan, Inc. or peptide synthesis facility of the Netherlands Cancer Institute; host or cells: chemical synthesis
Kind of experiment: Solid-phase binding ELISA of tPA, plasminogen and plasmin to coated Aβ. As to conditions: 50 mM ε-aminocaproic acid. On the procedure:
FIG. 3 is a set of graphs depicting binding of tPA, plasminogen and plasmin to Aβ. Aβ was coated onto plastic 96-well plates. Increasing concentrations of either (A) tPA or (B) plasmin(ogen) were allowed to bind to the immobilized peptide. After extensive washing, tPA and plasmin(ogen) binding was assessed by enzyme-linked immunosorbent assays using anti-tPA and anti-plasminogen antibodies. Binding of (C) tPA and (D) plasmin to Aβ in the presence of 50 mM ε-aminocaproic acid (ε-ACA) was assessed as in A and B.
To test whether tPA, plasminogen and plasmin bind Aβ, solid-phase binding assays were performed. Aβ was coated onto plastic 96-well plates and binding of the peptide to either plasmin(ogen) or to tPA was assessed by overlaying the coated peptide with increasing concentrations of either tPA, plasminogen or plasmin. Binding was assessed using specific antibodies to either plasmin(ogen) or to tPA by performing ELISA. […] However, activated plasminogen (plasmin) does bind to Aβ and does so with a kD of 47 nM. […] To test this, use was made of the lysine analogue ε-aminocaproic acid (εACA) and binding of plasmin and tPA to Aβ was tested in its presence. […] In contrast, εACA has no effect on the tPA-Aβ interaction (FIG. 3, Panel C). Thus, it was concluded that plasmin binds to free lysines that were generated during the incubation period, presumably via its lysine-binding Kringle domain(s). In line with this, the kD of plasminogen Kringle domain binding to free lysines in fibrin is similar to the kD for plasmin binding to Aβ.

Where no end group is shown, it is not given here.

Aβ (1-40), sequence (P05067 672-711): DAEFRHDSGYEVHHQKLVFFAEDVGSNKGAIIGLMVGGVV
T4 sequence (P05067 672-711): as above
T2 sequence (P05067 672-711): as above
T3 sequence (P00750 36-562): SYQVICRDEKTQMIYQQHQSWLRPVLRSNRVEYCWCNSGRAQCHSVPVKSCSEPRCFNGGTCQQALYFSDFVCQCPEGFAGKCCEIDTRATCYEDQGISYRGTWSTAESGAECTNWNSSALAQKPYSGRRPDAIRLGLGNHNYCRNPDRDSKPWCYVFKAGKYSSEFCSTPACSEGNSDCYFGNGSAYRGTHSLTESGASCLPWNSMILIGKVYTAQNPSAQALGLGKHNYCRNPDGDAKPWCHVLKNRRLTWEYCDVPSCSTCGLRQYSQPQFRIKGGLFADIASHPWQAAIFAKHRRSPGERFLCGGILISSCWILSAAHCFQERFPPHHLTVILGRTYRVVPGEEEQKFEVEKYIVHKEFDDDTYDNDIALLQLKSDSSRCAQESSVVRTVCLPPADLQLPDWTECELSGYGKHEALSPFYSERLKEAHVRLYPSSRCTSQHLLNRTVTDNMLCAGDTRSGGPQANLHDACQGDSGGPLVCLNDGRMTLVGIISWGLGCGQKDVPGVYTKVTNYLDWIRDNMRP

Consider “tPA-F-GST: amino-terminal finger domain (F) of human tPA, residues Ser1-Ser50, with GST tag (SYQVICRDEKTQMIYQQHQSWLRPVLRSNRVEYCWCNSGRAQCHSVPVKS-{GST}; cysteine pairing not given here)”, for which, in experiment [1], the “binding of GST-tagged construct to albumin-g6p” value is given as “bound”. Besides, the “binding of GST-tagged construct to human Aβ (1-40)” value in experiment [2] is “bound”. In addition, in experiment [3], the “binding to Aβ fibers (pull-down, Western blot)” value was “Efficient binding”.

With “Hb-g6p: human hemoglobin incubated with glucose-6-phosphate”, the tPA binding entry in experiment [4] is “high-affinity tPA binding”.

B1: RPTPμ-GST: extracellular domain of receptor-like protein tyrosine phosphatase μ with GST tag, control (protein, UniProt P28827 21-742, looked up)
extracellular domain: ETFSGGCLFDEPYSTCGYSQSEGDDFNWEQVNTLTKPTSDPWMPSGSFMLVNASGRPEGQRAHLLLPQLKENDTHCIDFHYFVSSKSNSPPGLLNVYVKVNNGPLGNPIWNISGDPTRTWNRAELAISTFWPNFYQVIFEVITSGHQGYLAIDEVKVLGHPCTRTPHFLRIQNVEVNAGQFATFQCSAIGRTVAGDRLWLQGIDVRDAPLKEIKVTSSRRFIASFNVVNTTKRDAGKYRCMIRTEGGVGISNYAELVVKEPPVPIAPPQLASVGATYLWIQLNANSINGDGPIVAREVEYCTASGSWNDRQPVDSTSYKIGHLDPDTEYEISVLLTRPGEGGTGSPGPALRTRTKCADPMRGPRKLEVVEVKSRQITIRWEPFGYNVTRCHSYNLTVHYCYQVGGQEQVREEVSWDTENSHPQHTITNLSPYTNVSVKLILMNPEGRKESQELIVQTDEDLPGAVPTESIQGSTFEEKIFLQWREPTQTYGVITLYEITYKAVSSFDPEIDLSNQSGRVSKLGNETHFLFFGLYPGTTYSFTIRASTAKGFGPPATNQFTTKISAPSMPAYELETPLNQTDNTVTVMLKPAHSRGAPVSVYQIVVEEERPRRTKKTTEILKCYPVPIHFQNASLLNSQYYFAAEFPADSLQAAQPFTIGDNKTYNGYWNTPLLPYKSYRIYFQAASRANGETKIDCVQVATKGAATPKPVPEPEKQTDHTVK
modifications: extracellular domain GST tag
notes: extracellular domain of receptor-like protein tyrosine phosphatase μ with GST tag, control
B1: the “binding of GST-tagged construct to albumin-g6p” value in experiment [1] is “no binding”. Also, the “binding of GST-tagged construct to human Aβ (1-40)” value in experiment [2] is on record as “no binding”.

B2: plasmin: activated plasminogen (protein)
chain: KVYLSECKTGNGKNYRGTMSKTKNGITCQKWSSTSPHRPRFSPATHPSEGLEENYCRNPDNDPQGPWCYTTDPEKRYDYCDILECEEECMHCSGENYDGKISKTMSGLECQAWDSQSPHAHGYIPSKFPNKNLKKNYCRNPDRELRPWCFTTDPNKRWELCDIPRCTTPPPSSGPTYQCLKGTGENYRGNVAVTVSGHTCQHWSAQTPHTHNRTPENFPCKNLDENYCRNPDGKRAPWCHTTNSQVRWEYCKIPSCDSSPVSTEQLAPTAPPELTPVVQDCYHGDGQSYRGTSSTTTTGKKCQSWSSMTPHRHQKTPENYPNAGLTMNYCRNPDADKGPWCFTTDPSVRWEYCNLKKCSGTEASVVAPPPVVLLPDVETPSEEDCMFGNGKGYRGKRATTVTGTPCQDWAAQEPHRHSIFTPETNPRAGLEKNYCRNPDGDVGGPWCYTTNPRKLYDYCDVPQCAAPSFDCGKPQVEPKKCPGRVVGGCVAHPHSWPWQVSLRTRFGMHFCGGTLISPEWVLTAAHCLEKSPRPSSYKVILGAHQEVNLEPHVQEIEVSRLFLEPTRKDIALLKLSSPAVITDKVIPACLPSPNYVVADRTECFITGWGETQGTFGAGLLKEAQLPVIENKVCNRYEFLNGRVQSTELCAGHLAGGTDSCQGDSGGPLVCFEKDKYILQGVTSWGLGCARPNKPGVYVRVSRFVTWIEGVMRNN
On to B2, for which, in experiment [5], the “effect on Aβ-induced cell detachment” value was “unable to ameliorate”. Besides, the “binding to Aβ in the presence of εACA” value in experiment [6] is on record as “completely abolished”.
